Results as given in patent US10925971B2, “Methods of treating PRLR positive breast cancer” (Regeneron Pharmaceuticals, Inc., priority 2016, dated 2021).

T1: native PRLR expressing T47D cells (Homo sapiens, UniProt P16471)
T1 construct: a native PRLR expressing cell line (T47D); endogenous in cells; host or cells: T47D
T1 sequence (P16471 25-622): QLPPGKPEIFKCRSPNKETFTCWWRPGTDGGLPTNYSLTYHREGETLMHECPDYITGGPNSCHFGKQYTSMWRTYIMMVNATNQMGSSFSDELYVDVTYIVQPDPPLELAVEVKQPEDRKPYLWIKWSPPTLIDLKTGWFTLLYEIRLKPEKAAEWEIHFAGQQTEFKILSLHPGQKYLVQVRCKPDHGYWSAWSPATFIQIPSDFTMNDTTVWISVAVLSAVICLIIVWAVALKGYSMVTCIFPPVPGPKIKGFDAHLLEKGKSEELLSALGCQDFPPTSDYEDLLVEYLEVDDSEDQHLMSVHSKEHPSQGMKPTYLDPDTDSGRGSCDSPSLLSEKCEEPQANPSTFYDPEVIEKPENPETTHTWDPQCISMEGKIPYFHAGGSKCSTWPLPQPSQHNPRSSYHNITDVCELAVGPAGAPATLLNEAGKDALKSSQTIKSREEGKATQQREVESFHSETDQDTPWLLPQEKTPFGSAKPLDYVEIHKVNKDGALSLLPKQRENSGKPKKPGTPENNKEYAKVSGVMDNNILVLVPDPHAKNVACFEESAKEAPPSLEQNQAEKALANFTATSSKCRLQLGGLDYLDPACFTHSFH

T2: human PRLR on HEK293/hPRLR cells (Homo sapiens, UniProt P16471)
T2 construct: HA; expressed in transfected cells; host or cells: HEK293
T2 sequence (P16471 25-622): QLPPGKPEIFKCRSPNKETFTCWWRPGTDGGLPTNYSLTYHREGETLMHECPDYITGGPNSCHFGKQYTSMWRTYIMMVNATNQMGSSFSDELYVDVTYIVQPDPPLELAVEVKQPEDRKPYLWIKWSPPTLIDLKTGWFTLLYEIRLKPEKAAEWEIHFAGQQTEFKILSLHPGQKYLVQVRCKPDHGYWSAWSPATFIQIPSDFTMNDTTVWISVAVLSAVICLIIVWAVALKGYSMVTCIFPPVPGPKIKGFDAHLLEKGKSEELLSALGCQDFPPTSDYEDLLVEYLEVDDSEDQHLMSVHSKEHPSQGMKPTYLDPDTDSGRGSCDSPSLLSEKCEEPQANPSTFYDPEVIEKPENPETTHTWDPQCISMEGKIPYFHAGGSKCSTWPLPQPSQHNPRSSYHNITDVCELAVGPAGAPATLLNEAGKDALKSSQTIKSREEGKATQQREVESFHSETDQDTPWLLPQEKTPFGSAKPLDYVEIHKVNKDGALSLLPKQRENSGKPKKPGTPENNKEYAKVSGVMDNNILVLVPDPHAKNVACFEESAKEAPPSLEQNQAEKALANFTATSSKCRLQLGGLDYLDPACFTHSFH

T3: mouse PRLR on HEK293/mPRLR cells (Mus musculus, UniProt Q08501)
T3 construct: HA; expressed in transfected cells; host or cells: HEK293
T3 sequence (Q08501 20-608): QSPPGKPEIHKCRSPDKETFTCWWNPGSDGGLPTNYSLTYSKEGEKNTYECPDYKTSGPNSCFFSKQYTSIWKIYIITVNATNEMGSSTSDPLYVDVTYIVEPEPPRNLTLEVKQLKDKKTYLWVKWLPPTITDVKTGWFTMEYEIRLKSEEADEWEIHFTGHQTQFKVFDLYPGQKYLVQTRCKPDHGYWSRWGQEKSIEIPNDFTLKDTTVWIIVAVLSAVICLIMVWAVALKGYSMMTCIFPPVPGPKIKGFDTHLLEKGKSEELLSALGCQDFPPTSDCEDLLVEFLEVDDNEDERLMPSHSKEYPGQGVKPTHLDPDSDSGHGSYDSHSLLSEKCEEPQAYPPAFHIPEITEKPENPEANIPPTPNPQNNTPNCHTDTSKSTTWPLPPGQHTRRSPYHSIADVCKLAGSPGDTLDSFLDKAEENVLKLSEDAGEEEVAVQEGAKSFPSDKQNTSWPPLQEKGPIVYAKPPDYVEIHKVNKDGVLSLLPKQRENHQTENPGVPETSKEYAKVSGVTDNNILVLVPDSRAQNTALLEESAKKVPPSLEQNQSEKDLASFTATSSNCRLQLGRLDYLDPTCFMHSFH

T4: monkey PRLR on HEK293/mfPRLR cells (Macaca fascicularis, UniProt A0A2K5WXK1)
T4 construct: HA; expressed in transfected cells; host or cells: HEK293
T4 sequence (A0A2K5WXK1 25-619): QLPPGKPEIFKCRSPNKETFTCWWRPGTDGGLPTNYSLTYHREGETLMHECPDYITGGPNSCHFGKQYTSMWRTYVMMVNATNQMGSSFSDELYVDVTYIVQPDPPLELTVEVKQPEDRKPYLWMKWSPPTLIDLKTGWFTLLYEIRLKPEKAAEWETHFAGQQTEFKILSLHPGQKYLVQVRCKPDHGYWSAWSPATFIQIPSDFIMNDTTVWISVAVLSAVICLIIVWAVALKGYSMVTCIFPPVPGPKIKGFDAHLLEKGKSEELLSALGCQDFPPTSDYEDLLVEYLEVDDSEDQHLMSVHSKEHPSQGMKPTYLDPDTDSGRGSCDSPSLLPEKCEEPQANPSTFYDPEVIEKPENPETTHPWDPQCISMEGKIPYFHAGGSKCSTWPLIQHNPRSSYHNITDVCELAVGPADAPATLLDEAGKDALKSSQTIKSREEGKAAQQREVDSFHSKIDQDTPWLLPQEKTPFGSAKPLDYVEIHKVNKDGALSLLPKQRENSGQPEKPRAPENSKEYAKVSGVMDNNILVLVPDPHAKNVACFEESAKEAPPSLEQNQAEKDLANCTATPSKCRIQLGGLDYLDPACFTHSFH


Tests used:
[1] = biological target: T1, native PRLR expressing T47D cells; assay: FACS cell surface binding
Outline: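 Binding expressed as mean fluorescence fold change above isotype background, measured by FACS after 30 min on ice with 10 μg/ml antibody and PE-conjugated anti-human detection. T47D, which natively expresses PRLR, tested with engineered HEK293/hPRLR and non-expressing HEK293 cells.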

[2] = biological target: T2, human PRLR on HEK293/hPRLR cells; assay: FACS cell surface binding
Outline: (§1)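 Stable HEK293 transfectants carrying HA-tagged PRLR (human, Macaca fascicularis, mouse) were selected ≥2 weeks in G418. Cells were exposed to 10 μg/ml test antibody on ice for 30 min, washed, and labelled with PE anti-human antibody. Fluorescence was reported as fold change versus isotype.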

[3] = biological target: T3, mouse PRLR on HEK293/mPRLR cells; assay: FACS cell surface binding
Outline: as §1

[4] = biological target: T4, monkey PRLR on HEK293/mfPRLR cells; assay: FACS cell surface binding
Outline: as §1

[5] = tested on: Macaca fascicularis PRLR (mfPRLR.mmh; SEQ ID NO:403); assay: Surface plasmon resonance (Biacore T200), antibody-capture format; format: binding; details: analyte mfPRLR.mmh
Chain of Macaca fascicularis PRLR (mfPRLR.mmh; SEQ ID NO:403) (as listed by the source): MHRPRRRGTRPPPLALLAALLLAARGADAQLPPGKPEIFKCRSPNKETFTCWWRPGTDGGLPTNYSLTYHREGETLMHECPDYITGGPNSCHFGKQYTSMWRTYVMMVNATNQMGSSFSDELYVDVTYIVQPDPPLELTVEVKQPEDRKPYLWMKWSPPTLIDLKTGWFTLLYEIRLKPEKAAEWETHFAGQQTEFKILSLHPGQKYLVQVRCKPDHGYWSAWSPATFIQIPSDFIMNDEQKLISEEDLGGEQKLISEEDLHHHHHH
Outline: (§2)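 Antibodies (human IgG1 Fc) captured on an anti-human Fc sensor surface; soluble monomeric (.mmh) or dimeric (.mFc) PRLR injected as analyte. ka and kd obtained by fitting to a 1:1 binding model.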

[6] = biological target: T5, dimeric human PRLR (hPRLR.mFc; SEQ ID NO:402) (Homo sapiens, UniProt P16471); assay: as above; format: binding; details: analyte hPRLR.mFc
T5 construct: dimeric (hPRLR.mFc)
T5 sequence (P16471 with tags, fused parts or gaps): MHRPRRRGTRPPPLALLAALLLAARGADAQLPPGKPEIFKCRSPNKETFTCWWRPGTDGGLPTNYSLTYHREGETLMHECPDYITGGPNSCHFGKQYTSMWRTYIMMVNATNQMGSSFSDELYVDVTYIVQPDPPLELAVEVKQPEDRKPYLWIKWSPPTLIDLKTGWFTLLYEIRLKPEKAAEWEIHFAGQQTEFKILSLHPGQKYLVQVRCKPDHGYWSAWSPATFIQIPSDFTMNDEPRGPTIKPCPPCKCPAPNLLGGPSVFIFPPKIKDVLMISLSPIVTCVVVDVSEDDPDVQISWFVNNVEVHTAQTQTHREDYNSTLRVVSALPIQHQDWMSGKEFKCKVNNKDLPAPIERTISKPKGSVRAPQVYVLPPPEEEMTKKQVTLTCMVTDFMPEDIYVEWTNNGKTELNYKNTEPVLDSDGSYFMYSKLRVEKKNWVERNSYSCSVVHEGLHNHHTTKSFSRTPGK
Outline: as §2

[7] = biological target: T6, monomeric human PRLR (hPRLR.mmh; SEQ ID NO:401) (Homo sapiens, UniProt P16471); assay: as above; format: binding; details: analyte hPRLR.mmh
T6 construct: soluble monomeric (hPRLR.mmh); mmh (myc-myc-hexahistidine) (C)
T6 sequence (P16471 with tags, fused parts or gaps): as the sequence (as listed by the source) above, with V105I, T139A, M154I, T187I, I236T counted along it
Outline: as §2

HEK293 parental cells = assay: FACS cell surface binding; parameters: species or system human
Outline: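 Flow cytometry: 1×10^5 cells/sample; primary Ab 10 μg/ml, 30 min on ice; 2 washes; PE anti-human 2° 10 μg/ml, 30 min on ice. Cells were HEK293 stably expressing HA-tagged PRLR of the given species, or untransfected HEK293. Readout was MFI fold over isotype.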

Row | Molecule | FACS Cell Binding [1] [Fold Above Background] | FACS Cell Binding [2] [Fold Above Background] | FACS Cell Binding [3] [Fold Above Background] | FACS Cell Binding [4] [Fold Above Background] | ka ([5]; 25° C.) [M/s] | kd ([5]; 25° C.) [s⁻¹] | ka ([5]; 37° C.) [M/s] | kd ([5]; 37° C.) [s⁻¹] | ka ([6]; 25° C.) [M/s] | kd ([6]; 25° C.) [s⁻¹] | ka ([6]; 37° C.) [M/s] | kd ([6]; 37° C.) [s⁻¹] | ka ([7]; 25° C.) [M/s] | kd ([7]; 25° C.) [s⁻¹] | ka ([7]; 37° C.) [M/s] | kd ([7]; 37° C.) [s⁻¹] | FACS Cell Binding (HEK293 parental cells) [Fold Above Background]
1 | H1H6804P: fully human anti-PRLR antibody, human IgG1 Fc; HCVR/LCVR SEQ ID NOs 242/250 (antibody, V domains shown) VH: QVTLKESGPVLVKPTQTLSLTCTVSGFSLSDAGMGVSWIRQPPGKALEWLAHIFSNDGKSYSTSLKSRLTISKDTSKRQVVLTMTNMDPVDTATYYCARIRTGTYSLYLDYWGQGTLVTVSS VL: DIQMTQSPSSLSASVGDRVTITCRASQSINSYLNWYQQKPGKAPKLLLYFASSLQSGVPSRFSGSGSGTDFTLTISSLQPEDFASYYCQESYSTPWTFGQGTKVEIK | 34 | 1 | 1 | 29 | 331000 | 0.000657 | 455000 | 0.00426 | 451000 | 8.69e-05 | 554000 | 0.000205 | 453000 | 0.000634 | 607000 | 0.00385 | 1
2 | H1H6801P: fully human anti-PRLR antibody, human IgG1 Fc; HCVR/LCVR SEQ ID NOs 210/218 (antibody, V domains shown) VH: QVQLQQSGPGLVKPSQTLSLTCVISGDSVSSNTAWNWVRQSPSRGLEWLGRTYYRSKWYNDYAVSVKSRITINPDTSKNQFSLLMNSVTPEDTAVYYCARVVRGLNYFDYWGQGTLVTVSS VL: DIVMTQSPDSLAVSLGERATINCKSSQSVLYNSNNKNYLAWYQQKPGQPPKLLIYWSSSRESGVPDRFSGSGSGTDFTLTISGLQAEDVAIYYCQQYSTIPYTFGQGTKLEIK | 45 | 47 | 56 | 88 | 657000 | 0.00123 | 711000 | 0.00771 | 675000 | 0.000109 | 793000 | 0.000221 | 846000 | 0.000756 | 951000 | 0.00441 | 7
3 | H1H6803P: fully human anti-PRLR antibody, human IgG1 Fc; HCVR/LCVR SEQ ID NOs 226/234 (antibody, V domains shown) VH: EVQLVESGGGVVRPGGSLRLSCAASGFKFDDYGMTWVRHVPGKGLEWVSGINWNGGRTGYTDSVKGRFTISRDNAKNSLYLQMNSLRAEDTALYHCAGARRDAFDIWGQGTMVTVSS VL: DIQMTQSPSSLSASIGDRVTITCRASQNIIKYLNWYQQNAGKAPKLLIYTASSLQSGVPSRFSGSGSGTDFTLTISSLQPEDFATYYCQQSSSSPYTFGQGTKLEIK | 39 | 39 | 1 | 28 | 62100 | 0.000209 | 87300 | 0.000636 | 104000 | 6.29e-05 | 134000 | 6.2e-05 | 82400 | 0.000137 | 129000 | 0.000364 | 1
